In patent US11844843 (DYNE THERAPEUTICS, dated 2023):

T1: recombinant cynomolgus monkey (Macaca fascicularis) TfR1 (cynomolgus monkey (Macaca fascicularis), UniProt Q5RDH6 87-760 (Pongo abelii entry), limits assumed)
T1 construct: Recombinant protein; also called cTfR1; cyTfR1
T1 chain: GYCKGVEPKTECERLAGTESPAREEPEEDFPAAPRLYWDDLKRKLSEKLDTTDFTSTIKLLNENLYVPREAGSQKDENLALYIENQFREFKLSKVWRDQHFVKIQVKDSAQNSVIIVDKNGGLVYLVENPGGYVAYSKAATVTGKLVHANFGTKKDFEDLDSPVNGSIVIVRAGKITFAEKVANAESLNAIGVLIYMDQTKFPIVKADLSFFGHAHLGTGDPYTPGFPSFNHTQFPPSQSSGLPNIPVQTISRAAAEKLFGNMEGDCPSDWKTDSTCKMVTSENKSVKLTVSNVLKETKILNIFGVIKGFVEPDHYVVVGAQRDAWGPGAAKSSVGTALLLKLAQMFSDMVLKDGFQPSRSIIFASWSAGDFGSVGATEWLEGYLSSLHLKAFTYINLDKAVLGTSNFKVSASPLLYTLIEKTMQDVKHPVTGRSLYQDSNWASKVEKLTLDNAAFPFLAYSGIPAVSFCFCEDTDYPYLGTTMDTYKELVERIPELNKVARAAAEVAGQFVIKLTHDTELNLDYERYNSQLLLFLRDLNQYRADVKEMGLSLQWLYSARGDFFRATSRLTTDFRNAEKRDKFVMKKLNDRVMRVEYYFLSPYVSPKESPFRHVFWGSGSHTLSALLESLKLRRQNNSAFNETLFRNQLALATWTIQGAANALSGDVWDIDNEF


How the values were obtained:
[1] = molecular target: T2, recombinant human TfR1 (transferrin receptor protein 1) (human, UniProt P02786 89-760); assay: ELISA on hTfR1, Fab conjugated to DMPK-targeting oligonucleotide, % normalized RFUs
T2 construct: Recombinant protein in SPR and ELISA; they were assigned to this molecule; also called hTfR1; huTfR1

[2] = molecular target: T2, recombinant human TfR1 (transferrin …); assay: ELISA, recombinant TfR1 coated, Fab-ASO300 conjugate (row 'Conjugate binding affinity ELISA')
[3] = molecular target: T1, recombinant cynomolgus monkey (Macaca …); assay: as above
[4] = molecular target: T1, recombinant cynomolgus monkey (Macaca …); assay: ELISA on cTfR1, Fab conjugated to DMPK-targeting oligonucleotide, % normalized RFUs
[5] = molecular target: T2, recombinant human TfR1 (transferrin …); assay: Table 14, Fab-ASO300 conjugate; method not named
[6] = molecular target: T1, recombinant cynomolgus monkey (Macaca …); assay: Table 14, Fab-ASO300 conjugate; method not named
[7] = molecular target: T2, recombinant human TfR1 (transferrin …); assay: Table 14, unconjugated Fab, d9 (after 9 days at 40 C); method not named
[8] = molecular target: T1, recombinant cynomolgus monkey (Macaca …); assay: as above
[9] = molecular target: T2, recombinant human TfR1 (transferrin …); assay: Table 14, unconjugated Fab, d0; method not named (values equal ELISA row of Table 13)
[10] = molecular target: T1, recombinant cynomolgus monkey (Macaca …); assay: as above
[11] = molecular target: T2, recombinant human TfR1 (transferrin …); assay: ELISA, recombinant TfR1 coated, unconjugated Fab (row 'Fab binding affinity ELISA')
[12] = molecular target: T1, recombinant cynomolgus monkey (Macaca …); assay: as above
[13] = molecular target: T2, recombinant human TfR1 (transferrin …); assay: ELISA on hTfR1, unconjugated Fab, % normalized RFUs
[14] = molecular target: T1, recombinant cynomolgus monkey (Macaca …); assay: ELISA on cTfR1, unconjugated Fab, % normalized RFUs
[15] = molecular target: T2, recombinant human TfR1 (transferrin …); assay: Biacore, d0; TfR1 species not stated
[16] = molecular target: T1, recombinant cynomolgus monkey (Macaca …); assay: ELISA on plate-coated recombinant cTfR1, fluorescent anti-(H+L) IgG-A488 detection, % normalized RFUs
Method: (§1) To measure binding of humanized anti-TfR antibodies to TfR1, ELISAs were conducted. High binding, black, flat bottom, 96 well plates (Corning #3925) were first coated with 100 μL/well of recombinant huTfR1 at 1 μg/mL in PBS and incubated at 4° C. overnight. Wells were emptied and residual liquid was removed. Blocking was conducted by adding 200 μL of 1% BSA (w/w) in PBS to each well. Blocking was allowed to proceed for 2 hours at room temperature on a shaker at 30) rpm. After blocking, liquid was removed and wells were washed three times with 300 μL of TBST. Anti-TfR1 antibodies were then added in 0.5% BSA/TBST in triplicate in an 8 point serial dilution (dilution range 5 μg/mL-5 ng/mL). A positive control and isotype controls were also included on the ELISA plate. The plate was incubated at room temperature on an orbital shaker for 60 minutes at 300 rpm, and the plate was washed three times with 300 μL of TBST. Anti-(H+L)IgG-A488 (1:500) (Invitrogen #A11013) was diluted in 0.5% BSA in TBST, and 100 μL was added to each well. The plate was then allowed to incubate at room temperature for 60 minutes at 300 rpm on orbital shaker. The liquid was removed and the plate was washed four times with 300 μL of TBST. […] Data was recorded and analyzed for $EC50$. […]

[17] = molecular target: T2, recombinant human TfR1 (transferrin …); assay: Biacore, d25; TfR1 species not stated
[18] = molecular target: T2, recombinant human TfR1 (transferrin …); assay: ELISA on plate-coated recombinant hTfR1, fluorescent anti-(H+L) IgG-A488 detection, % normalized RFUs
Method: as §1

[19] = molecular target: T2, recombinant human TfR1 (transferrin …); assay: kinetic analysis (Biacore), Table 7; TfR1 species not stated
[20] = molecular target: T1, recombinant cynomolgus monkey (Macaca …); assay: ELISA on cTfR1, Fab conjugated to DMPK-targeting oligonucleotide, % normalized RFUs
[21] = molecular target: T2, recombinant human TfR1 (transferrin …); assay: ELISA on hTfR1, Fab conjugated to DMPK-targeting oligonucleotide, % normalized RFUs; remark: listed apart in the source

Binder | EC50 [1] [nM] | EC50 [2] [nM] | EC50 [3] [nM] | EC50 [4] [nM] | DMPK oligo conjugate binding [5] [nM] | DMPK oligo conjugate binding [6] [nM] | EC50 [20] [nM] | EC50 [21] [nM] | also measured
conjugate of humanized anti-TfR Fab 3A4 VH3 (N54S)/Vκ4 with DMPK-targeting oligonucleotide ASO300 (Fab, V domains shown, oligonucleotide ASO300 conjugated to the Fab via linker; residue and chain not stated, also called 3A4 (VH3-N54S/Vk4) conjugate) VH: EVQLVQSGSELKKPGASVKVSCTASGFNIKDDYMYWVRQPPGKGLEWIGWIDPESGDTEYASKFQDRVTVTADTSTNTAYMELSSLRSEDTAVYYCTLWLRRGLDYWGQGTLVTVSS VL: DIVMTQSPLSLPVTPGEPASISCRSSKSLLHSNGYTYLFWFQQRPGQSPRLLIYRMSNLASGVPDRFSGSGSGTDFTLKISRVEAEDVGVYYCMQHLEYPFTFGGGTKVEIKR | 3.6 | 2.9 | 7.8 | 5.7 | 2.71 | 4.1 | – | – | –
conjugate of humanized anti-TfR Fab 3A4 VH3 (N54T)/Vκ4 with DMPK-targeting oligonucleotide ASO300 (Fab, V domains shown, oligonucleotide ASO300 conjugated to the Fab via linker; residue and chain not stated, also called 3A4 (VH3-N54T/Vk4) conjugate) VH: EVQLVQSGSELKKPGASVKVSCTASGFNIKDDYMYWVRQPPGKGLEWIGWIDPETGDTEYASKFQDRVTVTADTSTNTAYMELSSLRSEDTAVYYCTLWLRRGLDYWGQGTLVTVSS VL: DIVMTQSPLSLPVTPGEPASISCRSSKSLLHSNGYTYLFWFQQRPGQSPRLLIYRMSNLASGVPDRFSGSGSGTDFTLKISRVEAEDVGVYYCMQHLEYPFTFGGGTKVEIKR | 3.3 | 2.8 | 4.7 | 5.8 | 2.22 | 5.12 | – | – | –
humanized anti-TfR Fab 3M12 VH3/Vκ2 (Fab, V domains shown, also called 3M12 (VH3/Vk2)) VH: QVQLQESGPGLVKPSQTLSLTCSVTGYSITSGYYWNWIRQPPGKGLEWMGYITFDGANNYNPSLKNRVSISRDTSKNQFSLKLSSVTAEDTATYYCTRSSYDYDVLDYWGQGTTVTVSS VL: DIQMTQSPSSLSASVGDRVTITCRASQDISNFLNWYQQKPGQPVKLLIYYTSRLHSGVPSRFSGSGSGTDFTLTISSLQPEDFATYFCQQGHTLPYTFGQGTKLEIKR | – | – | – | – | – | – | – | – | Binding affinity [7]: 0.98 nM; Binding affinity [8]: 19.5 nM; Binding affinity [9]: 0.8 nM; Binding affinity [10]: 9.9 nM; EC50 [11]: 0.8 nM; EC50 [12]: 9.9 nM; EC50 [13]: 7.2 nM; EC50 [14]: 25.5 nM; Kd [15]: 0.395 nM; EC50 [16]: 25.5 nM; Kd [17]: 0.567 nM; EC50 [18]: 7.2 nM; Kd [19]: 0.395 nM; koff [19]: 0.000104 s⁻¹; kon [19]: 264000 M⁻¹ s⁻¹
conjugate of humanized anti-TfR Fab 3M12 VH3/Vκ2 with DMPK-targeting oligonucleotide ASO300 (Fab, V domains shown, oligonucleotide ASO300 conjugated to the Fab via linker; residue and chain not stated, also called 3M12 (VH3/Vk2) conjugate) VH: QVQLQESGPGLVKPSQTLSLTCSVTGYSITSGYYWNWIRQPPGKGLEWMGYITFDGANNYNPSLKNRVSISRDTSKNQFSLKLSSVTAEDTATYYCTRSSYDYDVLDYWGQGTTVTVSS VL: DIQMTQSPSSLSASVGDRVTITCRASQDISNFLNWYQQKPGQPVKLLIYYTSRLHSGVPSRFSGSGSGTDFTLTISSLQPEDFATYFCQQGHTLPYTFGQGTKLEIKR | – | 2.2 | 2.9 | – | 1.14 | 2.26 | 2.9 | 2.2 | –
conjugate of humanized anti-TfR Fab 3M12 VH4/Vκ3 with DMPK-targeting oligonucleotide ASO300 (Fab, V domains shown, oligonucleotide ASO300 conjugated to the Fab via linker; residue and chain not stated, also called 3M12 (VH4/Vk3) conjugate) VH: QVQLQESGPGLVKPSQTLSLTCTVTGYSITSGYYWNWIRQPPGKGLEWIGYITFDGANNYNPSLKNRVSISRDTSKNQFSLKLSSVTAEDTATYYCTRSSYDYDVLDYWGQGTTVTVSS VL: DIQMTQSPSSLSASVGDRVTITCRASQDISNFLNWYQQKPGQPVKLLIYYTSRLHSGVPSRFSGSGSGTDFTLTISSLQPEDFATYYCQQGHTLPYTFGQGTKLEIKR | – | 1.7 | 2.1 | – | 1.18 | 1.85 | 2.1 | 1.7 | –
